Patent US20240216517A1 (CELLEMEDY, published 2024)

Biological target: T1, human transferrin receptor-Fc tag standard (human, UniProt P02786 89-760)
T1 construct: This is a bought standard coated on the ELISA plate; also called hTfR; not shown: Fc tag
Test: ELISA, human transferrin receptor-Fc coated on the plate; Kd calculated from an expected saturation point, curve not saturated at 10000 nM
Protocol: Then, it was washed 3 times with 200 μl of PBST (PBS+Tween0.05%). An antibody (mouse anti-His tag antibody, Hisprobe) that specifically binds to the hexa-His tag was diluted 1/1000 in PBST, and the diluted solution was treated by 100 μl at room temperature for 1 hour.
Then, it was washed 3 times with 200 μl of PBST (PBS+Tween0.05%). TMB solution expressing coloration by reacting with HRP was treated by 100 μl at room temperature for 15 minutes. After 50 μl of 1M H₂SO₄ solution was treated, optical density was measured with TECAN at a wavelength of 450 nm. This was calculated using the Langmuir equation (Table 5, FIGS. 8 to 10).
FIG. 11 illustrates results of evaluation/comparison of the binding force of huHF_mutant1-dual and huHF_mutant2-dual to hTfR.

T1 sequence (P02786 89-760 limits assumed): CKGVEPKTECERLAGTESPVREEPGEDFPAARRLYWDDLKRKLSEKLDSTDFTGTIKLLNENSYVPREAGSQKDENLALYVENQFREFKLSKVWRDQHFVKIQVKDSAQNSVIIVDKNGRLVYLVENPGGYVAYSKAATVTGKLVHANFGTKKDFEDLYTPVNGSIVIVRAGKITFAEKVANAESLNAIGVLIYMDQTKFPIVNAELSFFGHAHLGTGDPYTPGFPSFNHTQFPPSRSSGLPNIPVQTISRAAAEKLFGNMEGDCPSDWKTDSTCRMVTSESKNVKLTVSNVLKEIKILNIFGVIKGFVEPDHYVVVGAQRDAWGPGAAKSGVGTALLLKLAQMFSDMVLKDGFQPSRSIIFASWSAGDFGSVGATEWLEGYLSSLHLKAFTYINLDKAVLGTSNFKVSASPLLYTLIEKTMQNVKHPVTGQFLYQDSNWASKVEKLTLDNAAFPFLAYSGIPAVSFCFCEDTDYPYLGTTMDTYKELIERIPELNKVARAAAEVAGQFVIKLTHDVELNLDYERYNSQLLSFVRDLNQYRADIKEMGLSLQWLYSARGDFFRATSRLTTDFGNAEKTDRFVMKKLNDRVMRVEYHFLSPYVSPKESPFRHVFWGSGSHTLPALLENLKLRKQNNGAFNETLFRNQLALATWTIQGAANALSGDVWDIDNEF

Kd: ~4.4 µM
B1: huHF_Mutant2-dual (designed binder)
chain: MTTASTSQVRQNYHAASEAAINAQINLELYASYVYLSMSYYFDRDDVALKNFAKYFLHQSHEEREHAEKLMKLQNQRGGRIALADIQKPDCDGGSYGSLYAFDIDWESGLNAMECALHLEKNVNQSLLALHALATAKNDPHLCDFIETHYLNEQVKAIKELGDHVTNLRKMGAPESGLAEYLFDKHTLGDSDNESMPSFITLASLSTWEGYFDF
notes: It self-assembles into a 24-mer nanoparticle
